In article PMC12768131, “Common cold embecovirus imprinting primes broadly neutralizing antibody responses to SARS-CoV-2 S2” (The Journal of experimental medicine, 2025):

Molecular target: T1, full-length SARS-CoV-2 spiketrimer (HP-GSAS-Mut7) (SARS-CoV-2, ancestral (Wuhan-Hu-1), stabilised)
T1 construct: also called full-length spike trimer; full-length spike
Test: BLI
Settings: both partners purified

B1: R125–61 Fab (Fab, V domains shown)
VH: QVQLQESGPGLVKPSETLSLICTVSGGSITRDFWSWVRQPPGKGLEWIGYGYYRGSTNYNPSLESRVTISVDTSKNQFSLKLTSVTAADTAVYYCARETAHNWIDTWGQGILVTVSS
VL: DIVMTQSPESLALSLGERATINCKSSQTVSFTSNNKNYLAWYQQKPRQPPKLLFYWASTRHSGVPDRFSGSGSGTDFTLTINSLQAEDVAVYFCHQYFSTPWTFGQGTKVEI
  Kd: 4.7 nM
